These results are taken from paper PMC10907630.

The test system of this series is tau ΔMTBD-DBR (1N4R) del242-265, P10636-7. In words: EMSA. The conditions noted are these: 10 mM NaCl; text gives 430; EMSA: 20 nM DNA or nucleosome, 20 mM HEPES pH 7.2, 10 mM NaCl (or 150), 0.5 mM TCEP, 0.1% Tween-20, 5% sucrose, room temperature 20 min; FA: 10 nM DNA, same ….
Sequence of tau ΔMTBD-DBR (1N4R) del242-265, P10636-7 (P10636 other isoform, or with tags, fused parts or gaps mutant): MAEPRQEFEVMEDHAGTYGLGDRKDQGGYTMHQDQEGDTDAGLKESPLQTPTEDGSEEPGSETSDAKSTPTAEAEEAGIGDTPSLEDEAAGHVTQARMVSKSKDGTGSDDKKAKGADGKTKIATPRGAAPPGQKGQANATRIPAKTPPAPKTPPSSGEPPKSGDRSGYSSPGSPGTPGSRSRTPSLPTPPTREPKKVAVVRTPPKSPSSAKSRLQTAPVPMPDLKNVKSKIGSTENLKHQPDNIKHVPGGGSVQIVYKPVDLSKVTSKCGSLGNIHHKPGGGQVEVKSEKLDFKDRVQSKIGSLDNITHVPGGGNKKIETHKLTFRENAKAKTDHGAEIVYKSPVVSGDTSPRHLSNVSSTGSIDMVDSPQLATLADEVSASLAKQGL

In the case of “ACTACGCGGCCGCCCTGGAGAATCCCGGTGCCGAGGCCGCTCAATTGGTCGTAGACAGCTCTAGCACCGCTTAAACGCACGTACGCGCTGTCCCCCGCGTTTTAACCGCCAAGGGGATTACTCCCTAGTCTCCAGGCACGTGTCAGATATATACATCCTGTGCATGTAAGATCCAGT (double strand) [177 bp DNA (601)]”, the equilibrium dissociation constant (Kd) turned out to be 427 nM.

By Kd is commonly meant the free concentration of one partner at which half of the binding sites on the other are occupied at equilibrium, for simple one-to-one binding. Higher therefore signals a looser complex.
